Measurements as given in patent US20220362355.

Molecular target: fibrin clot obtained by reacting fibrinogen with thrombin

B1: recombinant protein HtrA2 (residues 134-458 of the HtrA2 amino acid sequence) (protein)
chain: AVPSPPPASPRSQYNFIADVVEKTAPAVVYIEILDRHPFLGREVPISNGSGFVVAADGLIVTNAHVVADRRRVRVRLLSGDTYEAVVTAVDPVADIATLRIQTKEPLPTLPLGRSADVRQGEFVVAMGSPFALQNTITSGIVSSAQRPARDLGLPQTNVEYIQTDAAIDFGNSGGPLVNLDGEVIGVNTMKVTAGISFAIPSDRLREFLHRGEKKNSSSGISGSQRRYIGVMMLTLSPSILAELQLREPSFPDVQHGVLIHKVILGSPAHRAGLRPGDVILAIGEQMVQNAEDVYEAVRTQSQLAVQIRRGRETLTLYVTPEVTE
  A415 (dissolution of the fibrin clot, spectrophotometer, 2 mg/ml enzyme, 37 C, 24 h): 1 ± 0.09 A415
